Experimental data taken from patent publication US20250084155A1 (University of Texas, published 2025).
Positions count from the first letter of the chain named.

B1: h77A-2 (antibody, V domains shown)
VH: QIQLVQSGAEVKKPGASVKVSCKASGYTFTNYGMNWVRQAPGQGLEWMGWINTYTGEPTYADDFKGRFTFTTDTSTSTAYMELRSLRSDDTAVYFCARYDHAMDYWGQGTLVTVSS
VL: DIVMTQSPDSLSVSLGERATINCKSSQSLLNSGTRKNYLAWYQQKPGQPPRLLIYWTSTRESGVPDRFSGSGSGTDFTLTINTLQAEDVAVYYCKQSYTLYTFGQGTKLEIK
B2: h77A-3 (antibody, V domains shown)
VH: B1 VH
VL: B1 VL with I2V, S12A, A19V, P49S, R51K, N82S, T83S
B3: h77A-5 (antibody, V domains shown)
VH: B1 VH
VL: B1 VL with S12A, P49S, R51K, N82S, T83S, Q105G
B4: h77A-6 (antibody, V domains shown)
VH: B1 VH with A16S, T72A, T74E, R84S, D89E
VL: B1 VL with D1E, M4L, S12A, P46A, P49S, R51K, N82D, T83S, Q105G, L109V
B5: h77A-10 (antibody, V domains shown)
VH: B1 VH with A16S, T72A, T74E, R84S, D89E
VL: B1 VL with S12A, P49S, R51K, N82S, T83S, Q105G
B6: h77A-11 (antibody, V domains shown)
VH: QVQLQQSGPEVKKPGASVKISCKTSGYTFTNYGMNWVRQAPGQGLEWMGWINTYTGEPTYADDFKGRVTMTTDTSTSTAYLELTGLMSDDTAVYFCARYDHAMDYWGQGTTVTVSS
VL: B1 VL with D1E, M4L, S12A, P46A, P49S, R51K, N82D, T83S, Q105G, L109V
B7: h77A-1.37 (antibody, V domains shown)
VH: B1 VH with N31K, P58S, A102V
VL: B1 VL with D1E, M4L, S12A, P46A, P49S, R51K, N82D, T83S, Q105G, L109V
notes: captured by anti-human Fc
B8: h77A-1.38 (antibody, V domains shown)
VH: B1 VH with A9T, S77R, A102L
VL: B1 VL with D1E, M4L, S12A, P46A, P49S, R51K, N82D, T83S, Q105G, L109V
notes: captured by anti-human Fc
B9: h77A-1.39 (antibody, V domains shown)
VH: B1 VH with A61S, S77R
VL: EIVLTQSPDSLAVSLGERATINCKSSQSLLNSGTRKNYLAWYQQKAGQSPKLLIYWTSTRESGVPDRFSGSGSGTDFTLTIDSLQAEDVAVYYCKQSYNLYTFGGGTKVEIK
notes: captured by anti-human Fc
B10: h77A-1.40 (antibody, V domains shown)
VH: B1 VH with A102Y
VL: B9 VL with A12T
notes: captured by anti-human Fc
B11: h77A-1.41 (antibody, V domains shown)
VH: B1 VH with S77T, A102V
VL: B9 VL with A46P, N99T
notes: captured by anti-human Fc
B12: h77A-1.42 (antibody, V domains shown)
VH: B1 VH with Q3H, A97T, A102R
VL: B9 VL with N99T
notes: captured by anti-human Fc
B13: h77A-1.43 (antibody, V domains shown)
VH: B1 VH with Q3H, A79V
VL: B9 VL with L53I, N99T
notes: captured by anti-human Fc
B14: h77A-1.45 (antibody, V domains shown)
VH: B1 VH with A9V, A79V
VL: B9 VL with N99S
notes: captured by anti-human Fc
B15: h77A-1.47 (antibody, V domains shown)
VH: B1 VH with A9T, A102L
VL: B9 VL with A86T, N99T
notes: captured by anti-human Fc
B16: h77A-1.48 (antibody, V domains shown)
VH: B1 VH with E82D, A102Y
VL: B9 VL with A46P, N99T
notes: captured by anti-human Fc
B17: h77A-1.50 (antibody, V domains shown)
VH: B1 VH with Q3H, A9V, A61T
VL: B9 VL with V91I, N99T
notes: captured by anti-human Fc
B18: h77A-1.52 (antibody, V domains shown)
VH: B1 VH with A9V, T28I, T59R, A102R
VL: B9 VL with N99T
notes: captured by anti-human Fc
B19: h77A-1.53 (antibody, V domains shown)
VH: B1 VH with T59K, A61T, S77R
VL: B9 VL with A12S, N99T
notes: captured by anti-human Fc
B20: h77A-1.54 (antibody, V domains shown)
VH: B1 VH with N31K, T59K, A61G, A102R
VL: B9 VL with N99T
notes: captured by anti-human Fc
B21: h77A-1.55 (antibody, V domains shown)
VH: B1 VH with A9S, A61G, A102F
VL: B9 VL with A12S, N99T
notes: captured by anti-human Fc
B22: h77A-1.57 (antibody, V domains shown)
VH: B1 VH with P58A, A102V
VL: B9 VL with L30V, A86T, N99T
notes: captured by anti-human Fc
B23: h77A-1.62 (antibody, V domains shown)
VH: B1 VH with S77T, A79G
VL: B9 VL with N22K, G70A, N99T
notes: captured by anti-human Fc
B24: h77A-1.63 (antibody, V domains shown)
VH: B1 VH with T110S
VL: B9 VL with A40T, A46S, V91I, N99T
notes: captured by anti-human Fc
B25: h77A-1.64 (antibody, V domains shown)
VH: B1 VH with P58S
VL: B9 VL with Q44K, T80S, V91I, N99T
notes: captured by anti-human Fc
B26: h77A-1.65 (antibody, V domains shown)
VH: B1 VH with P58A, T110S
VL: B9 VL with A46S, V91I, N99T
notes: captured by anti-human Fc
B27: h77A-1.66 (antibody, V domains shown)
VH: B1 VH with T28I, P58S, A79V
VL: B9 VL with N22K, N99T
notes: captured by anti-human Fc
B28: h77A-1.70 (antibody, V domains shown)
VH: B1 VH with A61S
VL: B9 VL with A12S, Q44K, S83R, V91L, N99T
notes: captured by anti-human Fc
B29: h77A-1.72 (antibody, V domains shown)
VH: B1 VH with A9P, T28I, P58T, S77T, A79V
VL: B9 VL with N99T
notes: captured by anti-human Fc
B30: h77A-1.76 (antibody, V domains shown)
VH: B1 VH with A9V, P58T, L83V
VL: B9 VL with L30F, T80S, N99T
notes: captured by anti-human Fc
B31: h77A-1.77 (antibody, V domains shown)
VH: B1 VH with A9P, T28I, A61G, A97G
VL: B9 VL with S83R, N99T
notes: captured by anti-human Fc
B32: h77A-1.79 (antibody, V domains shown)
VH: B1 VH with N31K, T59R, A102R
VL: B9 VL with A46P
notes: captured by anti-human Fc
B33: h77A-1.80 (antibody, V domains shown)
VH: B1 VH with T59K, A102V
VL: B9 VL with A40S, A46P, L53I, N99T
notes: captured by anti-human Fc
B34: h77A-1.81 (antibody, V domains shown)
VH: B1 VH with Q3H, T28I, A79V, A97V
VL: B9 VL with L30F, N99T
notes: captured by anti-human Fc
B35: h77A-1.85 (antibody, V domains shown)
VH: B1 VH with Q3H, T28I, A97V
VL: B9 VL with A40S, Q44K, A46S, N99T
notes: captured by anti-human Fc
B36: h77A-1.86 (antibody, V domains shown)
VH: B1 VH with A9V, P58T
VL: B9 VL with L30F, Q44K, T80S, S83R, N99T
notes: captured by anti-human Fc
B37: h77A-1.91 (antibody, V domains shown)
VH: B1 VH with Q3H, T28I, A79V, A97V
VL: B9 VL with A12S, L30F, N99T
notes: captured by anti-human Fc
B38: h77A-1.92 (antibody, V domains shown)
VH: B1 VH with T28S, A61G
VL: B9 VL with A12T, L30F, Q44K
notes: captured by anti-human Fc
B39: h77A-1.96 (antibody, V domains shown)
VH: B1 VH
VL: B1 VL with S12A, P49S, R51K, N82S, T83S
notes: captured by anti-human Fc
B40: h77A-1.97 (antibody, V domains shown)
VH: B1 VH with F70M
VL: B1 VL with S12A, P49S, R51K, N82S, T83S
notes: captured by anti-human Fc
B41: h77A-1.98 (antibody, V domains shown)
VH: B1 VH with F70M
VL: B9 VL with N99T
notes: captured by anti-human Fc

Molecular target: T1, HSP70 (human HSP70; the antigen of the binning, humanization and variant binding assays) (human, UniProt P0DMV8 1-641, limits assumed)
T1 construct: also called hu HSP70
Test: BLI, antibody on sensor
Description: Humanized variants were characterized for binding using biolayer interferometry (BLI). Chimeric antibodies including the murine 77A antigen binding region and human Fe regions were also tested. Antibodies and reagents were diluted out onto microwell plates and loaded into the instrument. Diluted antibodies were first immobilized onto dip-and-read sensors, and then measurements for baselines were acquired. Subsequently, the sensors were dipped into wells containing the antigen in solution, or buffer alone. The change in number of molecules bound to the sensor was quantified by measurement of the shift in the interference pattern of light during each step of the protocol. Mathematical modeling was performed based on those values and the concentrations of reagents used in the assay and used to calculate kinetics values.

T1 sequence (P0DMV8 whole entry, change not shown): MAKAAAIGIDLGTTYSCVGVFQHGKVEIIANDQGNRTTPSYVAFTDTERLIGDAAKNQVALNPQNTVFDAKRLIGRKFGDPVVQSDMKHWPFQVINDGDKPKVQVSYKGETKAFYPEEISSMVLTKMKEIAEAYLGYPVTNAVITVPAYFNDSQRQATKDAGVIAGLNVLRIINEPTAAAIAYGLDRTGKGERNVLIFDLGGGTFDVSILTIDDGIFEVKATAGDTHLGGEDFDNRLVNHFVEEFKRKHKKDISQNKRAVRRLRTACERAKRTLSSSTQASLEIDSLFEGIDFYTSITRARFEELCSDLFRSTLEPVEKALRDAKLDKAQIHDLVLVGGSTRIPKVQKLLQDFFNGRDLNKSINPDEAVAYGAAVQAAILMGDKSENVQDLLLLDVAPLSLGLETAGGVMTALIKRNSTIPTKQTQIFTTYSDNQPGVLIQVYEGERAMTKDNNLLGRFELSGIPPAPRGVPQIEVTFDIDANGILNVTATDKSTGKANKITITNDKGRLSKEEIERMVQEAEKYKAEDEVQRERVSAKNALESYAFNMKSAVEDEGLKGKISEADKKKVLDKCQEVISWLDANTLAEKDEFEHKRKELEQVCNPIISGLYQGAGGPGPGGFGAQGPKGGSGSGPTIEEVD

| Binder | Kd [nM] | koff [s⁻¹] | kon [M⁻¹ s⁻¹] |
| --- | --- | --- | --- |
| B1 | 5.13 | 0.000308 | 59900 |
| B2 | 4.9 | 0.000305 | 62300 |
| B3 | 6.87 | 0.000353 | 51400 |
| B4 | 2.64 | 0.00014 | 53100 |
| B5 | 7.1 | 0.000409 | 57700 |
| B6 | 4.23 | 0.000189 | 44600 |

Molecular target: T1, HSP70 (human HSP70; the antigen of the …)
Test: BLI, anti-human Fc capture, antigen 100 nM
Description: Binding assays were performed as follows. Antibody variants were immobilized using anti-human Fc onto the surface of a series of biosensors at […]. Antigen, at 100 nM, was passed over the surface to generate a binding response. Binding data for the antibody:antigen interactions were collected at 25° C. on the biosensors. In Table 14, X=610 represents captured antigen value (nM) at the beginning of the dissociation phase (measured at 610 seconds after the biosensor was initially contacted with antigen) and X=1495 represents captured antigen value (nM) at the end of the dissociation phase (measured at 1495 seconds after the biosensor was initially contacted with antigen). In Table 14, antibodies with an X=610 value greater than 0.2 and a % dissociation less than 10% are shown in bold.

| Binder | % Diss [%] |
| --- | --- |
| B7 | 22.8 |
| B8 | 10.5 |
| B9 | 21 |
| B10 | 11.9 |
| B11 | 34.2 |
| B12 | 33.5 |
| B13 | 21.1 |
| B14 | 33.9 |
| B15 | 13.6 |
| B16 | 34.5 |
| B17 | 11.2 |
| B18 | -115 |
| B19 | 11.1 |
| B20 | -41.2 |
| B21 | 26.7 |
| B22 | 25.9 |
| B23 | 12.3 |
| B24 | 14.2 |

| Binder | % Diss [%] |
| --- | --- |
| B25 | 21 |
| B26 | 20.5 |
| B27 | 32.1 |
| B28 | 11.6 |
| B29 | 31.5 |
| B30 | 12.1 |
| B31 | 32.5 |
| B32 | -37.4 |
| B33 | -8.84 |
| B34 | 30.1 |
| B35 | 16.1 |
| B36 | 14.1 |
| B37 | 30.7 |
| B38 | 32.4 |
| B39 | 18.8 |
| B40 | 27.2 |
| B41 | 34.5 |
